Experimental data from patent US20130243743A1 (ACCELERON PHARMA, published 2013).
Changes are numbered by the printed parent chain.

T1: Activin A (UniProt P08476 311-426)
T1 sequence (looked up): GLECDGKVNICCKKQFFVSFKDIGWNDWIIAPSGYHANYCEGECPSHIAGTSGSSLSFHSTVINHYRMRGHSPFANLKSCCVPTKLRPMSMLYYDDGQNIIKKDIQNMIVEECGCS

T2: Growth and Differentiation Factor-11 (GDF11) (UniProt O95390 299-407)
T2 sequence (looked up): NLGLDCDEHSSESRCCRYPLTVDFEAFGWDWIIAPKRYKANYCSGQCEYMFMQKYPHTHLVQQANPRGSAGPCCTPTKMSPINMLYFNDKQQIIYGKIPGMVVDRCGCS

B1: ActRIIB(20-132)-hFc (Fc fusion, not shown: a dimerising Fc or GST)
chain: GRGEAETRECIYYNANWELERTNQSGLERCEGEQDKRLHCYASWRNSSGTIELVKKGCWLDDFNCYDRQECVATEENPQVYFCCCEGNFCNERFTHLPEAGGPEVTYEPPPTA
B2: ActRIIB(21-131)-hFc (Fc fusion, not shown: a dimerising Fc or GST)
chain: RGEAETRECIYYNANWELERTNQSGLERCEGEQDKRLHCYASWRNSSGTIELVKKGCWLDDFNCYDRQECVATEENPQVYFCCCEGNFCNERFTHLPEAGGPEVTYEPPPT
B3: ActRIIB(23-131)-hFc (Fc fusion, not shown: a dimerising Fc or GST)
chain: EAETRECIYYNANWELERTNQSGLERCEGEQDKRLHCYASWRNSSGTIELVKKGCWLDDFNCYDRQECVATEENPQVYFCCCEGNFCNERFTHLPEAGGPEVTYEPPPT
B4: ActRIIB(20-134)-hFc (Fc fusion, not shown: a dimerising Fc or GST)
chain: GRGEAETRECIYYNANWELERTNQSGLERCEGEQDKRLHCYASWRNSSGTIELVKKGCWLDDFNCYDRQECVATEENPQVYFCCCEGNFCNERFTHLPEAGGPEVTYEPPPTAPT
B5: ActRIIB(20-128)-hFc (Fc fusion, not shown: a dimerising Fc or GST)
chain: GRGEAETRECIYYNANWELERTNQSGLERCEGEQDKRLHCYASWRNSSGTIELVKKGCWLDDFNCYDRQECVATEENPQVYFCCCEGNFCNERFTHLPEAGGPEVTYEP
B6: ActRIIB(20-131)-hFc (Fc fusion, not shown: a dimerising Fc or GST)
chain: GRGEAETRECIYYNANWELERTNQSGLERCEGEQDKRLHCYASWRNSSGTIELVKKGCWLDDFNCYDRQECVATEENPQVYFCCCEGNFCNERFTHLPEAGGPEVTYEPPPT
B7: ActRIIB(24-131)-hFc (Fc fusion, not shown: a dimerising Fc or GST)
chain: AETRECIYYNANWELERTNQSGLERCEGEQDKRLHCYASWRNSSGTIELVKKGCWLDDFNCYDRQECVATEENPQVYFCCCEGNFCNERFTHLPEAGGPEVTYEPPPT
B8: ActRIIB(22-131)-hFc (Fc fusion, not shown: a dimerising Fc or GST)
chain: GEAETRECIYYNANWELERTNQSGLERCEGEQDKRLHCYASWRNSSGTIELVKKGCWLDDFNCYDRQECVATEENPQVYFCCCEGNFCNERFTHLPEAGGPEVTYEPPPT
B9: Soluble ActRIIB-Fc +15tail (Fc fusion)
chain: B4 chain with R45A
notes: not shown: linker and Fc

target: T1, Activin A; test: cell-based or functional assay; settings: not given

IC50, inhibition of ligand signalling, A-204 reporter gene assay (conditioned media) [ng/mL]	Binder
32	B1
325	B2
43	B3
22	B4
158	B5
201	B6
105	B7
100	B8

same assay, conditions: record 2

IC50, inhibition of ligand signalling, A-204 reporter gene assay (conditioned media) [ng/mL]	Binder
44	B6

target: T2, Growth and Differentiation Factor-11 …; test: cell-based or functional assay; settings: not given

IC50, inhibition of ligand signalling, A-204 reporter gene assay (conditioned media) [ng/mL]	Binder
87	B1
121	B2
60	B3
45	B4
130	B5
183	B6
69	B7
71	B8

same assay, conditions: record 2

IC50, inhibition of ligand signalling, A-204 reporter gene assay (conditioned media) [ng/mL]	Binder
120	B6

target: T1, Activin A; test: Biacore SPR; ligand coupled to the device, receptor flowed (table reproduced from WO2006/012627); +15tail variant; ligand coupled to the device, receptor flowed over it (data from WO2006/012627); settings: not given

Kd [nM]	Binder
~26	B9

target: T2, Growth and Differentiation Factor-11 …; test: as above; settings: not given

Kd [nM]	Binder
19	B9
